Source: PMC3744425

Target: Ubiquitin-7-amino-4-methylcoumarin (human) (UniProt P0CG48)

Substance	Kapp (apparent kcat/Km) of Ub-AMC hydrolysis, far from saturating conditions [M⁻¹ s⁻¹]
TYMV PRO L732A/L765A mutant, N-terminally 6-histidine tagged (enzyme)	2510
Turnip yellow mosaic virus (TYMV) PRO domain, N-terminally 6-histidine tagged, wild type (enzyme)	2650
TYMV PRO E759G/N760G mutant, N-terminally 6-histidine tagged (enzyme)	2060
TYMV PRO I847A mutant, N-terminally 6-histidine tagged (enzyme)	215
TYMV PRO I847D mutant, N-terminally 6-histidine tagged (enzyme)	14
